{"source": "paper PMC7843029", "about": "(Cell, 2021)", "binders": {"B1": {"name": "S304 IgG (antibody, V domains shown)", "VH": "EVQLVESGGGLVQPGGSLRLSCAASGFTFSSYDMHWVRQTTGKGLEWVSTIGTAGDTYYPDSVKGRFTISREDAKNSLYLQMNSLRAGDTAVYYCARGDSSGYYYYFDYWGQGTLLTVSS", "VL": "DIQMTQSPSSLSAAVGDRVTITCRASQSIGSYLNWYQQKPGKAPKLLIYAASSLQSGVPSRFSGSGSGTDFTLTISSLQPEDFAIYYCQQSYVSPTYTFGPGTKVDIK", "notes": "copies: 2 + 2"}}, "biological_target": "T1, RBD mouse Fc-tagged antigen (Sino Biological, Cat. No. 40592-V05H) (SARS-CoV-2, UniProt P0DTC2)", "T1 construct": "source: bought: Sino Biological", "test": "ELISA", "settings": "both partners purified", "data": [{"binder": "B1", "values": [{"measurement": "binding result", "value": "binds"}]}]}
